# Source: paper PMC8476742, “Mapping Potential Determinants of Peroxidative Activity in an Evolved Fungal Peroxygenase from Agrocybe aegerita” (Frontiers in Bioengineering and Biotechnology, 2021)
# Substitutions are numbered along the chain they refer to. Numbers in names are those of the source.
# B1: PaDa-I (Cyclocybe aegerita; A359H/A360H/F354L/G361I/I291V/L110F/V100A/V118I) (protein)
# chain: EPGLPPGPLENSSAKLVNDEAHPWKPLRPGDIRGPCPGLNTLASHGYLPRNGVATPAQIINAVQEGFNFDNQAAIFATYAAHLVDGNLITDLLSIGRKTRLTGPDPPPPASVGGLNEHGTFEGDASMTRGDAFFGNNHDFNETLFEQLVDYSNRFGGGKYNLTVAGELRFKRIQDSIATNPNFSFVDFRFFTAYGETTFPANLFVDGRRDDGQLDMDAARSFFQFSRMPDDFFRAPSPRSGTGVEVVVQAHPMQPGRNVGKINSYTVDPTSSDFSTPCLMYEKFVNITVKSLYPNPTVQLRKALNTNLDFLFQGVHHICTQVFPYGRD
# notes: evolved secretion variant, mature secreted enzyme; signal peptide mutations F12Y, A14V, R15G, A21D; expressed in Saccharomyces cerevisiae BJ5464, purified by ion exchange, no tag mentioned; heme-thiolate
# B2: PaDa-I (Cyclocybe aegerita; A359S/A360N/F354L/G361L/I291V/L110F/V100A/V118I/V358L) (protein)
# chain: B1 chain with V315L, H316S, H317N, I318L
# notes: as for B1
# Experiments:
# Experiment in all cases: purified protein
# Format in all cases: biochemical, Cyclocybe aegerita
# purified protein [1] = substrate: CCn1c(=NN=c2sc3cc(S(=O)(=O)O)ccc3n2CC)sc2cc(S(=O)(=O)O)ccc21
# purified protein [2] = substrate: O=[N+]([O-])c1ccc2c(c1)OCO2; conditions: 1 mM H2O2, 100 mM potassium phosphate pH 7.0, 15% acetonitrile
# purified protein [3] = substrate: COc1ccc(CO)cc1OC; conditions: 2 mM H2O2, 100 mM potassium phosphate pH 7.0, clone 23
# [4] = 2 mM H2O2, 100 mM sodium phosphate-citrate pH 3.0, clone 8
# [5] = 2 mM H2O2, 100 mM sodium phosphate-citrate pH 3.0, clone 23
Protein,Km (purified protein [1]; [4]) [µM],kcat (purified protein [1]; [4]) [s⁻¹],kcat/Km (purified protein [1]; [4]) [M⁻¹ s⁻¹],Km (purified protein [2]; clone 8) [µM],kcat (purified protein [2]; clone 8) [s⁻¹],kcat/Km (purified protein [2]; clone 8) [M⁻¹ s⁻¹],Km (purified protein [1]; [5]) [µM],kcat (purified protein [1]; [5]) [s⁻¹],kcat/Km (purified protein [1]; [5]) [M⁻¹ s⁻¹],Km (purified protein [3]) [µM],kcat (purified protein [3]) [s⁻¹],kcat/Km (purified protein [3]) [M⁻¹ s⁻¹],Km (purified protein [2]; clone 23) [µM],kcat (purified protein [2]; clone 23) [s⁻¹],kcat/Km (purified protein [2]; clone 23) [M⁻¹ s⁻¹]
B1,14 ± 2.4,239 ± 13,1.68e+07 ± 3.03e+06,437 ± 53,368 ± 19,842000 ± 111000,–,–,–,–,–,–,–,–,–
B2,–,–,–,–,–,–,15 ± 2,250 ± 11,1.67e+07 ± 2.34e+06,4920 ± 450,151 ± 4,31000 ± 3000,376 ± 40,367 ± 16,976000 ± 112000
